Assay results taken from paper PMC11982464, “Structural insight into the catalytic mechanism of the bifunctional enzyme L-fucokinase/GDP-fucose pyrophosphorylase” (The Journal of Biological Chemistry, 2025).

Legend:
[1] = test system: C[C@@H]1O[C@H](OP(=O)(O)O)[C@@H](O)[C@H](O)[C@@H]1O; experiment: purified protein; conditions: co-substrate GTP, 50 mM Hepes pH 7.5, 2 mM MgCl2
[2] = target: the molecule itself; experiment: AUC + SEC-MALS; SV-AUC at 20 °C, about 0.5 mg/ml, 50 mM Tris pH 8.0, 150 mM NaCl, 40,000 rpm; SEC-MALS at 1 mg/ml in 50 mM Tris pH 8.0, 150 mM NaCl, ENrich SEC 650 column
[3] = GDP-fucose pyrophosphorylase site

Question: For “FKP-FL (L-fucokinase/GDP-β-L-fucose pyrophosphorylase, full length) (Bacteroides fragilis)”, which Km [1, 3] is on record?
Answer: 40 ± 4 µM

Question: And the kcat [1, 3]?
Answer: 5.6 ± 0.3 s⁻¹

Question: And the kcat/Km [1, 3]?
Answer: 140000 M⁻¹ s⁻¹

Question: SUMO-FKP-NTD (Bacteroides fragilis) was tested. Which Km [1] did it give?
Answer: 80 ± 8 µM

B1: C-terminal domain of FKP (FKP-CTD), individually prepared (domain or fragment, Bacteroides fragilis 9343, UniProt Q58T34 518-949, looked up)
chain: MPELLPEDALQMSRIHNRMLRARILKLDGKDYRPEEQAAFDLLRDGLLDGISNRKSTPKLDVYSDQIVWGRSPVRIDMAGGWTDTPPYSLYSGGNVVNLAIELNGQPPLQVYVKPCKDFHIVLRSIDMGAMEIVSTFDELQDYKKIGSPFSIPKAALSLAGFAPAFSAVSYASLEEQLKDFGAGIEVTLLAAIPAGSGLGTSSILASTVLGAINDFCGLAWDKNEICQRTLVLEQLLTTGGGWQDQYGGVLQGVKLLQTEAGFAQSPLVRWLPDHLFTHPEYKDCHLLYYTGITRTAKGILAEIVSSMFLNSSLHLNLLSEMKAHALDMNEAIQRGSFVEFGRLVGKTWEQNKALDSGTNPPAVEAIIDLIKDYTLGYKLPGAGGGGYLYMVAKDPQAAVRIRKILTENAPNPRARFVEMTLSDKGFQVSRS
notes: L-fucokinase/GDP-fucose pyrophosphorylase (FKP), Bacteroides fragilis 9343, GenBank AY849806, C-terminal domain 518-949 (the abstract says 519-949); The calculated mass is printed as 49 kDa; The abstract gives 519-949, the results 518-949; source: E. coli BL21 (DE3), purified (HiTrap chelating HP, Superdex 200 gel filtration)
Question: With B1 as the molecule, how does the “stoichiometry N” value [2] read?
Answer: 2

B2: full-length L-fucokinase/GDP-β-L-fucose pyrophosphorylase (FKP-FL) from Bacteroides fragilis 9343 (enzyme, UniProt Q58T34 1-949, looked up)
chain: MQKLLSLPSNLVQSFHELERVNRTDWFCTSDPVGKKLGSGGGTSWLLEECYNEYSDGATFGEWLEKEKRILLHAGGQSRRLPGYAPSGKILTPVPVFRWERGQHLGQNLLSLQLPLYEKIMSLAPDKLHTLIASGDVYIRSEKPLQSIPEADVVCYGLWVDPSLATHHGVFASDRKHPEQLDFMLQKPSLAELESLSKTHLFLMDIGIWLLSDRAVEILMKRSHKESSEELKYYDLYSDFGLALGTHPRIEDEEVNTLSVAILPLPGGEFYHYGTSKELISSTLSVQNKVYDQRRIMHRKVKPNPAMFVQNAVVRIPLCAENADLWIENSHIGPKWKIASRHIITGVPENDWSLAVPAGVCVDVVPMGDKGFVARPYGLDDVFKGDLRDSKTTLTGIPFGEWMSKRGLSYTDLKGRTDDLQAVSVFPMVNSVEELGLVLRWMLSEPELEEGKNIWLRSEHFSADEISAGANLKRLYAQREEFRKGNWKALAVNHEKSVFYQLDLADAAEDFVRLGLDMPELLPEDALQMSRIHNRMLRARILKLDGKDYRPEEQAAFDLLRDGLLDGISNRKSTPKLDVYSDQIVWGRSPVRIDMAGGWTDTPPYSLYSGGNVVNLAIELNGQPPLQVYVKPCKDFHIVLRSIDMGAMEIVSTFDELQDYKKIGSPFSIPKAALSLAGFAPAFSAVSYASLEEQLKDFGAGIEVTLLAAIPAGSGLGTSSILASTVLGAINDFCGLAWDKNEICQRTLVLEQLLTTGGGWQDQYGGVLQGVKLLQTEAGFAQSPLVRWLPDHLFTHPEYKDCHLLYYTGITRTAKGILAEIVSSMFLNSSLHLNLLSEMKAHALDMNEAIQRGSFVEFGRLVGKTWEQNKALDSGTNPPAVEAIIDLIKDYTLGYKLPGAGGGGYLYMVAKDPQAAVRIRKILTENAPNPRARFVEMTLSDKGFQVSRS
notes: The calculated mass is printed as 108 kDa; also called L-fucokinase/GDP-fucose pyrophosphorylase; source: E. coli BL21 (DE3), purified (HiTrap chelating HP, Superdex 200 gel filtration)
Question: For B2, which “stoichiometry N” value [2] is on record?
Answer: 4
